Experimental findings from patent US20150017095A1 (AbbVie / Abbott, published 2015) are described below.

The target of test [1] is T1, Recombinant Human IL-6 sR (human, UniProt P08887 20-358).
T1 construct: domain: IL-6 sR; Bought reagent; also called IL-6R
T1 sequence (looked up): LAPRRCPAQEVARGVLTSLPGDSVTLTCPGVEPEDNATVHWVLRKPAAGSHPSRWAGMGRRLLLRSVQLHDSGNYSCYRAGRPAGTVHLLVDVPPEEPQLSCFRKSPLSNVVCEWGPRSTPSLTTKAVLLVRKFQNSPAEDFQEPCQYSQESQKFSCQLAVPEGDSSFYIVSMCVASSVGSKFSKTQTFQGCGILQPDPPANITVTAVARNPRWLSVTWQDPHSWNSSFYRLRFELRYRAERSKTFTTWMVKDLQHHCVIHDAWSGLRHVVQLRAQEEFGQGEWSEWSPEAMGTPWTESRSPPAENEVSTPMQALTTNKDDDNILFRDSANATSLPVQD
Description: direct bind ELISA, antigen coated on plate (C-terminal VD). On the procedure:
(§1) Enzyme Linked Immunosorbent Assays to screen for antibodies that bind a desired target antigen were performed as follows. High bind ELISA plates (Corning Costar #3369, Acton, Mass.) were coated with 100 μL/well of 10 μg/ml of desired target antigen (R&D Systems, Minneapolis, Minn.) or desired target antigen extra-cellular domain/FC fusion protein (R&D Systems, Minneapolis, Minn.) or monoclonal mouse anti-polyHistidine antibody (R&D Systems # MAB050, Minneapolis, Minn.) in phosphate buffered saline (10×PBS, Abbott Bioresearch Center, Media Prep# MPS-073, Worcester, Mass.) overnight at 4° C. Plates were washed four times with PBS containing 0.02% Tween 20. Plates were blocked by the addition of 300 μL/well blocking solution (non-fat dry milk powder, various retail suppliers, diluted to 2% in PBS) for ½ hour at room temperature. Plates were washed four times after blocking with PBS containing 0.02% Tween 20.
(§2) Plates were washed 4 times with PBS containing 0.02% Tween 20.
(§3) One hundred microliters of enhanced TMB solution (Neogen Corp. #308177, K Blue, Lexington, Ky.) was added to each well and incubated for 10 minutes at room temperature. The reaction was stopped by the addition of 50 μL 1N sulphuric acid.
For orientation: An ELISA detects its analyte on a solid surface through an enzyme-linked reagent.

The target of test [2] is T1, Recombinant Human IL-6 sR. Description: BIACORE SPR, DVD-Ig captured, antigen in flow (C-terminal VD). As to the method: (§4) The BIACORE assay (Biacore, Inc, Piscataway, N.J.) determines the affinity of antibodies or DVD-Ig with kinetic measurements of on-rate and off-rate constants. […] All chemicals are obtained from Biacore® AB (Uppsala, Sweden) or otherwise from a different source as described in the text. For example, approximately 5000 RU of goat anti-mouse IgG, (Fcγ), fragment specific polyclonal antibody (Pierce Biotechnology Inc, Rockford, Ill.) diluted in 10 mM sodium acetate (pH 4.5) is directly immobilized across a CM5 research grade biosensor chip using a standard amine coupling kit according to manufacturer's instructions and procedures at 25 μg/ml. Unreacted moieties on the biosensor surface are blocked with ethanolamine. Modified carboxymethyl dextran surface in flowcell 2 and 4 is used as a reaction surface. Unmodified carboxymethyl dextran without goat anti-mouse IgG in flow cell 1 and 3 is used as the reference surface. For kinetic analysis, rate equations derived from the 1:1 Langmuir binding model are fitted simultaneously to association and dissociation phases of all eight injections (using global fit analysis) with the use of Biaevaluation 4.0.1 software. Purified antibodies or DVD-Ig are diluted in HEPES-buffered saline for capture across goat anti-mouse IgG specific reaction surfaces. Antibodies or DVD-Ig to be captured as a ligand (25 μg/m) are injected over reaction matrices at a flow rate of 5 μl/min. The association and dissociation rate constants, kₒₙ (M⁻¹s⁻¹) and koff (s⁻¹) are determined under a continuous flow rate of 25 μl/min. Rate constants are derived by making kinetic binding measurements at different antigen concentrations ranging from 10-200 nM. The equilibrium dissociation constant (M) of the reaction between antibodies or DVD-Igs and the target antigen is then calculated from the kinetic rate constants by the following formula: KD=koff/kₒₙ. Binding is recorded as a function of time and kinetic rate constants are calculated.
For orientation: SPR reads the build-up and loss of mass on a sensor chip optically.

The next test concerns the target Recombinant Human β-NGF (human, UniProt P01138 122-239, limits assumed). The test is described as follows: BIACORE SPR, DVD-Ig captured, antigen in flow (C-terminal VD); BIACORE, DVD-Ig captured, NGF in flow, 25 C; C-terminal VD. On the procedure:
as §4

Test [3] deals with T2, murine TNFα (murine, UniProt P06804 80-235).
T2 sequence (looked up): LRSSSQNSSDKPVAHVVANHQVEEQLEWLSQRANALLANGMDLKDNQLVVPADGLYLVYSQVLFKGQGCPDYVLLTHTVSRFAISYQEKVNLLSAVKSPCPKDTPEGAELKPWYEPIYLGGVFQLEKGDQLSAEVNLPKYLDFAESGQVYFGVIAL
The test is described as follows: cell-based or functional assay.

In test [4] the target is T2, murine TNFα. Description: ELISA, TNFα binding activity (Example 2.2.3.3).
A further test addresses Recombinant Human IL-15 (human, UniProt P40933 49-162). Description: BIACORE SPR, DVD-Ig captured, antigen in flow (N-terminal VD). On the procedure:
as §4

The target in test [5] is T1, Recombinant Human IL-6 sR. Description: BIACORE SPR, antibody captured, antigen in flow. On the procedure:
as §4

For test [6], the target named is T1, Recombinant Human IL-6 sR. The test is described as follows: direct bind ELISA, antigen coated on plate. As to the method: as §1, §2, §3

One may read the EC50 as the concentration at which the effect is half-maximal. For orientation: Kd means the constant that tells how readily two partners part at equilibrium. As a reminder, the koff is the first-order rate constant of dissociation. By kon is commonly meant the rate constant with which the complex forms. One may read the IC50 as the concentration at which inhibition is half-maximal. Low readings indicate inhibition by little substance, high ones a need for much substance.

Sequence of Recombinant Human IL-15 (P40933 49-162 limits assumed): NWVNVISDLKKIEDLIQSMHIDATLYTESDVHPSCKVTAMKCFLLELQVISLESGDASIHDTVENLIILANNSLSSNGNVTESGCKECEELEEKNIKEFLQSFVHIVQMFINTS
Sequence of Recombinant Human β-NGF (P01138 122-239 limits assumed): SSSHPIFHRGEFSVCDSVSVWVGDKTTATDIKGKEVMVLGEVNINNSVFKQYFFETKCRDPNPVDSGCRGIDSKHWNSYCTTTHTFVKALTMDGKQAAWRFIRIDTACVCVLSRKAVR

B1: DVD151 (PGE2 / IL-6R DVD-Ig) (bispecific antibody, human IgG1)
VH: EVQLVQSGAEVKKPGASVKVSCKASGYTFTKYWLGWVRQAPGQGLEWMGDIYPGYDYTHYNEKFKDRVTLTTDTSTSTAYMELRSLRSDDTAVYYCARSDGSSTYWGQGTLVTVSSASTKGPEVQLQESGPGLVRPSQTLSLTCTVSGYSITSDHAWSWVRQPPGRGLEWIGYISYSGITTYNPSLKSRVTMLRDTSKNQFSLRLSSVTAADTAVYYCARSLARTTAMDYWGQGSLVTVSS
VL: DVLMTQTPLSLPVTPGEPASISCTSSQNIVHSNGNTYLEWYLQKPGQSPQLLIYKVSNRFSGVPDRFSGSGSGTDFTLKISRVEAEDVGVYYCFQVSHVPYTFGGGTKVEIKRTVAAPDIQMTQSPSSLSASVGDRVTITCRASQDISSYLNWYQQKPGKAPKLLIYYTSRLHSGVPSRFSGSGSGTDFTFTISSLQPEDIATYYCQQGNTLPYTFGQGTKVEIKR
notes: Outer domain is AB048 (PGE2), inner domain is AB054 (IL-6R); also called VD151H; VD151L
As to B1, the EC50 in test [1] came out at 26500 nM. In addition, in test [2], the Kd is 5.94 nM, the koff amounted to 0.00015 s⁻¹ and the kon came to 25300 M⁻¹ s⁻¹.

B2: DVD163 (PGE2 / NGF DVD-Ig) (bispecific antibody)
VH: EVQLVQSGAEVKKPGASVKVSCKASGYTFTKYWLGWVRQAPGQGLEWMGDIYPGYDYTHYNEKFKDRVTLTTDTSTSTAYMELRSLRSDDTAVYYCARSDGSSTYWGQGTLVTVSSASTKGPQVQLQESGPGLVKPSETLSLTCTVSGFSLIGYDLNWIRQPPGKGLEWIGIIWGDGTTDYNSAVKSRVTISKDTSKNQFSLKLSSVTAADTAVYYCARGGYWYATSYYFDYWGQGTLVTVSS
VL: DVLMTQTPLSLPVTPGEPASISCTSSQNIVHSNGNTYLEWYLQKPGQSPQLLIYKVSNRFSGVPDRFSGSGSGTDFTLKISRVEAEDVGVYYCFQVSHVPYTFGGGTKVEIKRTVAAPDIQMTQSPSSLSASVGDRVTITCRASQSISNNLNWYQQKPGKAPKLLIYYTSRFHSGVPSRFSGSGSGTDFTFTISSLQPEDIATYYCQQEHTLPYTFGQGTKLEIKR
notes: Outer domain is AB048 (PGE2), inner domain is AB020 (NGF); also called VD163H; VD3163L
On to B2, for which, in the test with Recombinant Human β-NGF, the Kd was found to be 0.122 nM, the koff amounted to 1.03e-06 s⁻¹ and the kon was determined as 8400 M⁻¹ s⁻¹.

B3: 2B5-hSL-8C11 anti-murine TNFα/anti-PGE2 DVD-Ig with human short linker (bispecific antibody)
VH: QVQLQQSGPELVRPGSSVKISCKASGYTFTKYWLGWVKQRPGHGLEWIGDIYPGYDYTHYNEKFKDKATLTVDTSSSTAYMQLSSLTSEDSAIYYCARSDGSSTYWGQGTLVTVSAASTKGPEFQLQQSGPELVKPGASVRISCKASGYSFTDYNMNWVKQSNGKSLEWVGVINPNYGSSTYNQKFKGKATLTVDQSSSTAYMQLNSLTSEDSAVYYCARKWGQLGRGFFDVWGTGTTVTVSS
VL: DVLMTQTPLSLPVSLGDQASISCTSSQNIVHSNGNTYLEWYLQRPGQSPKLLIYKVSNRFSGVPDRFSGSGSGTVFTLKISRVEAEDLGVYYCFQVSHVPYTFGGGTKLEIKRTVAAPQIVLSQSPAILSASPGEKVTMTCRASSSVSYMHWFQQKPGSSPKPWIYATSNLASGVPARFSGSGSGTSYSLTISRVEAEDAATYYCQQWSSSPLTFGAGTKLELKR
notes: DVD-Ig; Outer domain is 2B5 (PGE2), inner domain is 8C11 (murine TNFα); also called 2B5-huSL-8C11
As for B3, the “IC50, L929 assay (TNFα-induced cell death)” value (from here on “IC50, L929 assay”) with murine TNFα [3] stood at 4.39 nM. In addition, the IC50 with murine TNFα [4] came to 0.234 nM.

B4: DVD154 (IL-15 / PGE2 DVD-Ig) (bispecific antibody)
VH: EVQLVQSGAEVKKPGESLKISCKVSGYFFTTYWIGWVRQMPGKGLEYMGIIYPGDSDTRYSPSFQGQVTISADKSISTAYLQWSSLKASDTAMYYCARGGNWNCFDYWGQGTLVTVSSASTKGPEVQLVQSGAEVKKPGASVKVSCKASGYTFTKYWLGWVRQAPGQGLEWMGDIYPGYDYTHYNEKFKDRVTLTTDTSTSTAYMELRSLRSDDTAVYYCARSDGSSTYWGQGTLVTVSS
VL: EIVLTQSPGTLSLSPGERATLSCRASQSVSSSYLAWYQQKPGQAPRLLIYGASRRATGIPDRFSGSGSGTDFTLTISRLEPEDFAVYYCQRYGSSHTFGQGTKLEISRTVAAPDVLMTQTPLSLPVTPGEPASISCTSSQNIVHSNGNTYLEWYLQKPGQSPQLLIYKVSNRFSGVPDRFSGSGSGTDFTLKISRVEAEDVGVYYCFQVSHVPYTFGGGTKVEIKR
notes: Outer domain is AB049 (IL-15), inner domain is AB048 (PGE2); also called VD154H; VD154L
With B4, in the test with Recombinant Human IL-15, the Kd stood at 4.89 nM, the koff was found to be 0.00198 s⁻¹ and the kon is 404000 M⁻¹ s⁻¹.

B5: 2B5-hLL-8C11 anti-murine TNFα/anti-PGE2 DVD-Ig with human long linker (bispecific antibody, human IgG1)
VH: QVQLQQSGPELVRPGSSVKISCKASGYTFTKYWLGWVKQRPGHGLEWIGDIYPGYDYTHYNEKFKDKATLTVDTSSSTAYMQLSSLTSEDSAIYYCARSDGSSTYWGQGTLVTVSAASTKGPSVFPLAPEFQLQQSGPELVKPGASVRISCKASGYSFTDYNMNWVKQSNGKSLEWVGVINPNYGSSTYNQKFKGKATLTVDQSSSTAYMQLNSLTSEDSAVYYCARKWGQLGRGFFDVWGTGTTVTVSS
VL: DVLMTQTPLSLPVSLGDQASISCTSSQNIVHSNGNTYLEWYLQRPGQSPKLLIYKVSNRFSGVPDRFSGSGSGTVFTLKISRVEAEDLGVYYCFQVSHVPYTFGGGTKLEIKRTVAAPSVFIFPPQIVLSQSPAILSASPGEKVTMTCRASSSVSYMHWFQQKPGSSPKPWIYATSNLASGVPARFSGSGSGTSYSLTISRVEAEDAATYYCQQWSSSPLTFGAGTKLELKR
notes: DVD-Ig; Outer domain is 2B5 (PGE2), inner domain is 8C11 (murine TNFα)
Turning to B5, the “IC50, L929 assay” value with murine TNFα [3] turned out to be 0.088 nM. For the same molecule, the IC50 with murine TNFα [4] came out at 0.256 nM.

B6: AB054 anti-IL-6R parent antibody (antibody, human IgG1, V domains shown)
VH: EVQLQESGPGLVRPSQTLSLTCTVSGYSITSDHAWSWVRQPPGRGLEWIGYISYSGITTYNPSLKSRVTMLRDTSKNQFSLRLSSVTAADTAVYYCARSLARTTAMDYWGQGSLVTVSS
VL: DIQMTQSPSSLSASVGDRVTITCRASQDISSYLNWYQQKPGKAPKLLIYYTSRLHSGVPSRFSGSGSGTDFTFTISSLQPEDIATYYCQQGNTLPYTFGQGTKVEIKR
Take B6: in test [5], the Kd was determined as 0.448 nM, the koff is 0.00016 s⁻¹ and the kon worked out at 357000 M⁻¹ s⁻¹. The EC50 in test [6] was determined as 1.75 nM.

B7: anti-TNFα monoclonal antibody clone 8C11 (antibody, V domains shown)
VH: EFQLQQSGPELVKPGASVRISCKASGYSFTDYNMNWVKQSNGKSLEWVGVINPNYGSSTYNQKFKGKATLTVDQSSSTAYMQLNSLTSEDSAVYYCARKWGQLGRGFFDVWGTGTTVTVSS
VL: QIVLSQSPAILSASPGEKVTMTCRASSSVSYMHWFQQKPGSSPKPWIYATSNLASGVPARFSGSGSGTSYSLTISRVEAEDAATYYCQQWSSSPLTFGAGTKLELKR
notes: Murine hybridoma antibody against murine TNFα; also called 8C11-1E10; anti-mouse TNF monoclonal antibody
In the case of B7, the “IC50, L929 assay” value with murine TNFα [3] worked out at 5.85 nM. The IC50 in the test with murine TNFα [4] was 0.201 nM.
